One protein from publication doi:10.1101/2021.11.09.467869 (bioRxiv, 2021) can be followed below.

The data set concerns the molecule itself. Kind of data set: SEC + other: negative-staining EM.

B1: L6 TIR domain (L6^TIR), residues 26-231 (domain or fragment, UniProt Q40253 26-231, looked up)
chain: PNSKDSIVNDDDDSTSEVDAISDSTNPSGSFPSVEYEVFLSFRGPDTREQFTDFLYQSLRRYKIHTFRDDDELLKGKEIGPNLLRAIDQSKIYVPIISSGYADSKWCLMELAEIVRRQEEDPRRIILPIFYMVDPSDVRHQTGCYKKAFRKHANKFDGQTIQNWKDALKKVGDLKGWHIGKNDKQGAIADKVSADIWSHISKENLI
In the case of B1, the binding result was “binds”.
